Common to all, as to conditions: partners not purified
The target of experiment [1] is Cerulean-CaVβ1 ( (human or rat cDNA cloned), UniProt Q02641-1). Kind of experiment: FRET or BRET; flow cytometry FRET (flow-FRET) in live HEK293 cells co-transfected with Venus-nanobody and Cerulean-CaVβ; FRET efficiency against free nanobody fitted with a 1:1 binding model; effective dissociation constant (Kd,EFF); cycloheximide 100 μM 2 h before. (In general: Bioluminescence resonance energy transfer reports proximity on the nanometre scale.)
Cerulean-CaVβ1, sequence (Q02641 whole entry): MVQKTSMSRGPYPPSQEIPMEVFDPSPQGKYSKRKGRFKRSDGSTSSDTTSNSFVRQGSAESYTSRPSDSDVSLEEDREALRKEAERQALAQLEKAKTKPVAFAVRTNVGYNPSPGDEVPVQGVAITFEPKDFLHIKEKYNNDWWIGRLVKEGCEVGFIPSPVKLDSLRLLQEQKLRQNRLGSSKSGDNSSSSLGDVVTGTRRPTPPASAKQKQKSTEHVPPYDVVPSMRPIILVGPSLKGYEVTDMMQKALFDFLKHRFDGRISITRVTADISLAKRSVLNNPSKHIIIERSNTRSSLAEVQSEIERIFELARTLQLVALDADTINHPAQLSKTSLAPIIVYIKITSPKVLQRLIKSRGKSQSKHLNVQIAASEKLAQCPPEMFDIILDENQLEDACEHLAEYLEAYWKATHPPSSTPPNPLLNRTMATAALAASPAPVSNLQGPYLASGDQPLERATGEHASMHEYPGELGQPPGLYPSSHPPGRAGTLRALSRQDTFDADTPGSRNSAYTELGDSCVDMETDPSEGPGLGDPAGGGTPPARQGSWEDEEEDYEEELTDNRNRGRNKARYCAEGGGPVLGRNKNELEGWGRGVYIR

The target of experiment [2] is Cerulean-CaVβ2 ( (human or rat cDNA cloned), UniProt Q08289). The description is as above.
Cerulean-CaVβ2, sequence (Q08289 whole entry): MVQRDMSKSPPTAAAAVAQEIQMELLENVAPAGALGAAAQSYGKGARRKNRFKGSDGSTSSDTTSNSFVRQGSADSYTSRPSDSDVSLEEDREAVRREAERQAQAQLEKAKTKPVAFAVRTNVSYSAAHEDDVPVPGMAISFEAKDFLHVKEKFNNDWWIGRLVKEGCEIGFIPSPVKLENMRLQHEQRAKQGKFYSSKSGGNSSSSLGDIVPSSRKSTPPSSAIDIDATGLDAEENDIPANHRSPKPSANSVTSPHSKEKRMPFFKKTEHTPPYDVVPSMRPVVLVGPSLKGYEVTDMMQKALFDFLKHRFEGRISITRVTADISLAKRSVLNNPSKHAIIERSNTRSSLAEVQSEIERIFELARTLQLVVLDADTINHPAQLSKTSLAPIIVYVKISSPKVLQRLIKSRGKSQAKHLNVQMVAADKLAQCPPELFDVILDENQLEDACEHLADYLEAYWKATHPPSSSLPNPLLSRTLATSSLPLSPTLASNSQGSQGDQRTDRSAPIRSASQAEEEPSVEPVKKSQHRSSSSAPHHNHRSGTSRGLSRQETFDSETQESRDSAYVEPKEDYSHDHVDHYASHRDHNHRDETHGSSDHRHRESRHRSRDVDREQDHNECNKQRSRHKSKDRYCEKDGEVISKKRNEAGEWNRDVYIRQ
Experiment [3] addresses Cerulean-CaVβ3 ( (human or rat cDNA cloned), UniProt P54284). The experiment is described as above.
Experiment [4] concerns the target Cerulean-CaVβ4 ( (human or rat cDNA cloned), UniProt O00305). The description is as above.
The target in experiment [5] is T1, Venus-tagged β1b[NK-CT] (Rattus norvegicus (assumed), UniProt P54283).
T1 construct: CaVβ1b module of the NK domain and the C-terminus; the text says the module was tagged with Cerulean; source: HEK293, co-expressed, in cells
T1 sequence (P54283 whole entry, looked up, the tested form may be a part): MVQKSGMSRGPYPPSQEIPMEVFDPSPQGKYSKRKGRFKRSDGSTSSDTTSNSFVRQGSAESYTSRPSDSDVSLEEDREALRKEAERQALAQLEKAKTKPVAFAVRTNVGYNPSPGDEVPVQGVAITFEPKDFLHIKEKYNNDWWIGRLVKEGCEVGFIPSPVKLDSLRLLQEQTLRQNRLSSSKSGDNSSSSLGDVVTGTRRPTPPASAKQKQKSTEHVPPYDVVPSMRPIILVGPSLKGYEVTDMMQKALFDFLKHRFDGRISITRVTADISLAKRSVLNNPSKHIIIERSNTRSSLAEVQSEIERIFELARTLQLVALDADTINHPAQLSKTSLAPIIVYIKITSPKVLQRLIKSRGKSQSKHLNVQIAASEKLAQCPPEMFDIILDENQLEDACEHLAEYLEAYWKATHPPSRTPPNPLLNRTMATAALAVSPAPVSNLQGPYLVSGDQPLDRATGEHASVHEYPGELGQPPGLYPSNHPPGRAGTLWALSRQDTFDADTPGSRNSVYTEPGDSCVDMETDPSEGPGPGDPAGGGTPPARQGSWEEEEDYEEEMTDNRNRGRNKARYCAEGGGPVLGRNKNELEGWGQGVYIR
Kind of experiment: FRET or BRET; flow cytometry FRET (flow-FRET) in HEK293 cells co-expressing Cerulean-nb.E8 and Venus-tagged β1b modules or β1b/β3 chimeras; 1:1 binding model; effective dissociation constant (Kd,EFF).

Cerulean-CaVβ3, sequence (P54284 whole entry): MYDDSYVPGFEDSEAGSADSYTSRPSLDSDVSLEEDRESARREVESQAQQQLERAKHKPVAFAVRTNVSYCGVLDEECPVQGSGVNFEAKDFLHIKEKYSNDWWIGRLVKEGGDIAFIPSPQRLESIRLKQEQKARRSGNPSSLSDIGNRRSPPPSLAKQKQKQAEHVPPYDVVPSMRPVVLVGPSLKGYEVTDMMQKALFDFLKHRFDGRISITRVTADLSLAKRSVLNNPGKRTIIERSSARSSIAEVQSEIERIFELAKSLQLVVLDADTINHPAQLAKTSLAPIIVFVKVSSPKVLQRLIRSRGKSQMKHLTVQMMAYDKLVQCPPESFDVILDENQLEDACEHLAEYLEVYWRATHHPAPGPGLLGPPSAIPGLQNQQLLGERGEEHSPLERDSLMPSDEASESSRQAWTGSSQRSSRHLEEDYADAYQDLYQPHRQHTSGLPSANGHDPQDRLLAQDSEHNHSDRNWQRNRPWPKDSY

B1: Venus-nb.E8 (VHH)
VHH: QVQLQESGGGSVQAGGSLRLSCAASGRTFSKNAMGWFRQAPGKEREFVVAISWSGRNTYYADSVKGRFTISRDNAKNTVDLQMNSLKPEDSAVYYCAVGGDWRVYDISFYYTAHQYEYWGQGTQVTVSS
notes: llama nanobody nb.E8 from a phage display library; The methods say the nanobodies were cloned upstream of a Venus marker (pCDNA3.1), while the name Venus-nb.E8 puts the tag first; also called Venus-tagged nb.E8; source: HEK293, transiently co-transfected, in cells; not shown: Venus, C-terminal, kept
B1: the binding result is recorded as “binds” in experiment [1], “no binding” in experiment [2], “no binding” in experiment [3] and “no binding” in experiment [4].

B2: Cerulean-nb.E8 (VHH)
VHH: QVQLQESGGGSVQAGGSLRLSCAASGRTFSKNAMGWFRQAPGKEREFVVAISWSGRNTYYADSVKGRFTISRDNAKNTVDLQMNSLKPEDSAVYYCAVGGDWRVYDISFYYTAHQYEYWGQGTQVTVSS
notes: the text of the results says that the CaVβ1 modules carried Cerulean; source: HEK293, co-expressed, in cells
As for B2, the binding result in experiment [5] was “no binding”.

B3: Venus-nb.F3 (VHH)
VHH: QVQLQESGGGLVQAGGSLRLSCVASGRTFSSYAMGWFRQAPGKEREFVAAIDWSGGTASHADSVKGRFTISRDNAKNTVYLQMNSLKPEDTAVYYCAASSYWSRSVDEYDYWGQGTQVTVSS
notes: llama nanobody nb.F3 from a phage display library; The methods say the nanobodies were cloned upstream of a Venus marker (pCDNA3.1), while the name Venus-nb.F3 puts the tag first; also called Venus-tagged nb.F3; source: HEK293, transiently co-transfected, in cells; not shown: Venus, C-terminal, kept
On to B3, for which the binding result in experiment [1], in experiment [2], in experiment [3] and in experiment [4] was “binds” in each case.

These data come from publication PMC9734117, “Selective posttranslational inhibition of CaVβ1-associated voltage-dependent calcium channels with a functionalized nanobody” (Nature Communications, 2022).
